Measured values reported in patent publication US20080019991A1 (CYTOS BIOTECHNOLOGY, published 2008).

Biological target: T1, recombinant human RANK-hFc fusion protein (human, UniProt Q9Y6Q6 30-212, limits assumed)
T1 construct: also called hRANK; not shown: human Fc (hFc)
T1 sequence (looked up): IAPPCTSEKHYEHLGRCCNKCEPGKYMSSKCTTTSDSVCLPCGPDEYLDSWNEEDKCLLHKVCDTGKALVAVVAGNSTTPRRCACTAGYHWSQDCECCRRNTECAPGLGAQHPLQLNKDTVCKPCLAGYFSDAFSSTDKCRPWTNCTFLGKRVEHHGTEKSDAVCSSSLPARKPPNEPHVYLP
Experiment: ELISA, human RANKL coated at 10 µg/ml, anti-hFc-HRP detection
Protocol: To test whether the antibodies generated in mice have neutralizing activity, in vitro binding assays for both mouse and human RANKL and their cognate receptors mouse RANK and human RANK were established. ELISA plates were therefore coated with 10 μg/ml of either mouse or human RANKL protein and incubated with serial dilutions of a recombinant mouse RANK-hFc fusion protein or a recombinant human RANK-hFc fusion protein, respectively. Bound protein was detected with a horse raddish peroxidase conjugated anti-hFc antibody. […] ELISA plates were therefore coated with either mouse or human RANKL protein at a concentration of 10 μg/ml, and co-incubated with serial dilutions of a pool of mouse sera from day 35 and 0.35 nM mouse or human RANK-hFc fusion protein, respectively. Binding of receptor to immobilized RANKL protein was detected with horse raddish peroxidase conjugated anti-hFc antibody.

binding result: binds
B1: human RANKL protein (ligand, UniProt O14788 140-317, looked up)
chain: IRAEKAMVDGSWLDLAKRSKLEAQPFAHLTINATDIPSGSHKVSLSSWYHDRGWAKISNMTFSNGKLIVNQDGFYYLYANICFRHHETSGDLATEYLQLMVYVTKTSIKIPSSHTLMKGGSTKYWSGNSEFHFYSINVGGFFKLRSGEEISIEVSNPSLLDPDQDATYFGAFKVRDID
notes: Coated on ELISA plates; also called hRANKL
